Measurements as given in US7592168B2, “Cephalosporin C acylase mutant and method for preparing 7-ACA using same” (Sandoz AG, priority 2003, dated 2009).

Legend:
Assay type in all cases: biochemical
[1] = Specific activity of CPC acylase to GL-7-ACA; settings: purified enzyme
Protocol: J. Appl. Microbiol. Biotechnol. 23: 559-564, 1995). […] After the reaction, the mixture (200 μl) of 50 mM NaOH and 20% glacial acetic acid (1:2) was added thereto to stop the reaction. 200 μl of the supernatant recovered from the reaction mixture by centrifugation was mixed with 40 μl of 0.5% (w/v) PDAB (p-dimethylaminobenzaldehyde; Sigma, USA) dissolved in a methanol and the reaction mixture was incubated at 37° C. for 10 min. After the reaction, the absorbance of reaction mixture was measured at 415 nm and quantified by comparing with a calibration curve of standard material. […] Biochem. 72: 248-254, 1976) and representing it as an active unit corresponding to 1 mg of protein. The reactivity of CPC acylase mutant to CPC was determined by the following steps of adding the same amount of protein to a reaction mixture, performing an enzyme reaction for a fixed time, measuring the amount of 7-ACA produced in the reaction mixture, and representing it as a relative value. The end-product inhibition by 7-ACA was determined by adding a protein corresponding to the same active unit to a reaction mixture, performing an enzyme reaction for a fixed time; measuring the amount of 7-ACA produced in the reaction mixture, and representing it as a relative value.
Therefore, it has been known that the Pseudomonas sp.

[2] = End-product inhibition by 7-ACA; settings: same active unit of enzyme
Protocol: (§1) The enzyme activity of CPC acylase mutant to CPC was measured according to the method described by Park et al. with minor modifications as follows (Park, et al., Kor. J. Appl. Microbiol. Biotechnol. 23: 559-564, 1995). A substrate solution was prepared by dissolving CPC (purity 74.2%; CJ Corp., Korea) in 0.1 M Tris-HCl buffer solution (pH 8.0) at a concentration of 20 mg/ml and adjusting pH to 8 with 1 N NaOH. 20 μl of the CPC solution was mixed with 20 μl of the crude enzyme solution prepared above and the reaction mixture was incubated at 37° C. for 5 min. After the reaction, the mixture (200 μl) of 50 mM NaOH and 20% glacial acetic acid (1:2) was added thereto to stop the reaction. 200 μl of the supernatant recovered from the reaction mixture by centrifugation was mixed with 40 μl of 0.5% (w/v) PDAB (p-dimethylaminobenzaldehyde; Sigma, USA) dissolved in a methanol and the reaction mixture was incubated at 37° C. for 10 min. After the reaction, the absorbance of reaction mixture was measured at 415 nm and quantified by comparing with a calibration curve of standard material. […] Meanwhile, the specific activity of CPC acylase mutant for CPC was determined by measuring the amount of protein remaining in the enzyme solution according to the method described by Bradford (Bradford, M., Anal. Biochem. 72: 248-254, 1976) and representing it as an active unit corresponding to 1 mg of protein. […]

[3] = Optimal reaction temperature and pH to CPC; settings: purified mutant enzyme
Protocol: Further, as a result of examining the optimal reaction temperature and pH of the wild-type CPC acylase AcyII, the optimal reaction temperature and pH to CPC were 40° C. and 9.0, respectively.

[4] = Reactivity to CPC (relative 7-ACA produced by the same amount of protein); settings: crude enzyme solution
Protocol: as §1

B1: Wild-type: Pseudomonas sp. SE83 derived wild-type CPC acylase (AcyII), α-subunit SEQ ID NO: 4 and β-subunit SEQ ID NO: 5, from pBCPC (protein)
alpha: TMAAKTDREALQAALPPLSGSLSIPGLSAPVRVQRDGWGIPHIKASGEADAYRALGFVHAQDRLFQMELTRRKALGRAAEWLGAEAAEADILVRRLGMEKVCRRDFEALGAEAKDMLRAYVAGVNAFLASGAPLPIEYGLLGAEPEPWEPWHSIAVMRRLGLLMGSVWFKLWRMLALPVVGAANALKLRYDDGGQDLLCIPPGVEAERLEADLAALRPAVDALLKAMGG
beta: SNNWAVAPGRTATGRPILAGDPHRVFEIPGMYAQHHLACDRFDMIGLTVPGVPGFPHFAHNGKVAYCVTHAFMDIHDLYLEQFAEDGRTARFGNEFEPVAWRRDRIAVRGGADREFDIVETRHGPVIAGDPLEGAALTLRSVQFAETDLSFDCLTRMPGASTVAQLYDATRGWGLIDHNLVAGDVAGSIGHLVRARVPSRPRENGWLPVPGWSGEHEWRGWIPHEAMPRVIDPPGGLIVTANNRVVADDHPDYLCTDCHPPYRAERIMERLVASPAFAVDDAAAIHADTLSPHVGLLRARLEALGIQGSLPAEELRQTLIAWDGRMDAGSQAASAYNAFRRALTRLVTARSGLEQAIAHPFAAVPPGVSPQGQVWWAVPTLLRNDDAGMLKGWSWDEALSEALSVATQNLTGRGWGEEHRPRFTHPLSAQFPAWAALLNPVSRPIGGDGDTVLANGLVPSAGPEATYGALSRYVFDVGNWDNSRWVVFHGASGHPASPHYADQNAPWSDCAMVPMLYSWDRIAAEAVTSQELVPA
modifications: Pseudomonas sp. SE83
[1]
  specific activity to GL-7-ACA: about 23.1 unit/mg protein

B2: S12: sixfold CPC acylase mutant, α-subunit SEQ ID NO: 7 and β-subunit SEQ ID NO: 8 (protein)
alpha: TMAAKTDREALQAALPPLSGSLSIPGLSAPVRVQRDGWGIPHIKASGEADAYRALGFVHAQDRLFQMELTRRKALGRAAEWLGAEAAEADILVRRLGMEKVCRRDFEALGAEAKDMLRAYAAGVNAFLASGAPLPIEYSLLGAEPEPWEPWHSIAVMRRLGLLMGSVWFKLWRMLALPVVGAANALKLRYDDGGQDLLCIPPGVEAERLEADLAALRPAVDALLKAMGG
beta: SNNWAVAPGRTATGRPILAGDPHRVFEIPGMYAQHHLACDRFDMIGLTVPGVPGFPHNAHNGKVAYCVTHAFMDTHDLYLEQFAEDGRTARFGNEFEPVAWRRDRIAVRGGADREFDIVETRHGPVIAGDPLEGAALTLRSVQFAETDLSFDCLTRMPGASTVAQLYDATRGWGLVDHNLVAGDVAGSIGHLVRARVPSRPRENGWLPVPGWSGEHEWRGWIPHEAMPRVIDPPGGLIVTANNRVVADDHPDYLCTDCHPPYRAERIMERLVASPAFAVDDAAAIHADTLSPHVGLLRARLEALGIQGSLPAEELRQTLIAWDGRMDAGSQAASAYNAFRRALTRLVTARSGLEQAIAHPFAAVPPGVSPQGQVWWAVPTLLRNDDAGMLKGWSWDEALSEALSVATQNLTGRGWGEEHRPRFTHPLSAQFPAWAALLNPVSRPIGGDGDTVLANGLVPSAGPEATYGALCRYVFDVGNWDNSRWVVFHGASGHPASPHYADQNAPWSDCAMVPMLYSWDRIAAEAVTSQELVPA
modifications: alpha-subunit of mutatnt CPC acylase S12 protein; beta-subunit of mutatnt CPC acylase S12 protein
[2]
  end-product inhibition by 7-ACA (in words): significantly decreased as compared with that of the wild-type enzyme
[3]
  reaction feature (e.g., optimal temperature and pH) compared with wild-type: the same as the wild-type CPC acylase
[4]
  reactivity to CPC (in words): higher than that of #76 mutant
